Laboratory results as given in US20190262327A1 (AstraZeneca / MedImmune, published 2019).

Experiments:
[1] = target: T1, biotinylated synthetic human Amyloid beta 1-42 peptide (human, UniProt P05067 672-713, biotinylated (N-terminal biotin in Example 4)); assay: SPR (ProteOn); biotinylated peptide on streptavidin chip, scFv in solution
T1 construct: domain: Amyloid beta 1-42 peptide; Numbers 1-42 count on the Amyloid beta peptide, not on APP; also called biotinylated human Amyloid beta 1-42; N-terminal biotin Abeta 1-42
T1 sequence (P05067 672-713 limits assumed): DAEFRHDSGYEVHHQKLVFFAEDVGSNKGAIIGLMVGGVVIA
Method: These experiments were performed essentially as described by Karlsson et al. (Karlsson et al., 1991).
The chip surface was regenerated between cycles by a single 60 second injection of 10 mM Glycine pH 2.0 to remove scFv bound to the peptide.
Each scFv at 100-200 nM was sequentially passed over the peptide surface for a sufficient amount of time to observe sensorgrams that could be fitted to an appropriate binding model with confidence. An irrelevant scFv blank was subtracted from the main dataset to reduce the impact of any buffer artefacts or non-specific binding effects. An appropriate binding model was then fitted to the data.

[2] = target: T1, biotinylated synthetic human Amyloid …; assay: HTRF epitope competition; purified scFv titrated; competitor Abet0144-GL IgG1-TM
Method: (§1) Two thousand and twenty four scFv chosen at random from selection rounds 3 and 4 of the targeted mutagenesis approach described in section 1.2 were expressed in bacteria to produce unpurified periplasmic scFv.
(§2) One thousand six hundred and seventy two scFv, randomly selected from selection rounds 9 to 11, were screened in an epitope competition assay as described in section 1.3.
(§3) Where the assay was performed more than once, the absolute range of IC₅₀ values is provided.

[3] = target: T1, biotinylated synthetic human Amyloid …; assay: HTRF epitope competition; purified scFv titrated; competitor Abet0144-GL IgG1-TM; range of repeats
Method: as §1, §2, §3

Binder	Kd [1]	koff [1]	kon [1]	IC50 [2]	IC50 [3]
Abet0332 scFv (scFv, V domains shown, not shown: small tags and cut ends, Purified scFv expressed in E. coli) VH: EVQLLESGGGLVQPGESLRLSCAASSDSWHTDIMWWVRQAPGKRLEWVSVIGNSNKKIAYADSVKGRFTISRDNSKNTLYLQMNSLRAEDTAVYYCAREWMDHSRPYYYYGMDVWGQGTLVTVSS VL: SYELTQPPSVSVSPGQTASITCSGHNIGAKWVSWYQQKPGQSPILVIYRDDKRPSGIPERFSASNSGHTATLTISGTQATDEADYYCQAQGQVTRSFGGGTKLTVL	0.391 nM	0.000129 s⁻¹	329000 M⁻¹ s⁻¹	0.91 nM	–
Abet0343 scFv (scFv, V domains shown, not shown: small tags and cut ends, Purified scFv expressed in E. coli) VH: EVQLLESGGGLVQPGGSLRLSCAASGFNFNHQVMWWVRQAPGKGLEWVSVIGKTNENIAYADSVKGRFTISRDNSKNTLYLQMNSLRAEDTAVYYCAREWMDHSRPYYYYGMDVWGQGTLVTVSS VL: QSVLTQPPSVSVSPGQTASITCSGHNLEDKFASWYQQKSGQSPVLVIYRDDKRPSGIPERFSASNSGHTATLTISGTQATDEADYYCSSQDTVTRVFGGGTKLTVL	0.188 nM	2.25e-05 s⁻¹	120000 M⁻¹ s⁻¹	0.48 nM	–
Abet0328 scFv (scFv, V domains shown, not shown: small tags and cut ends, Purified scFv expressed in E. coli) VH: EVQLLESGGGLVQPGGSLRLSCAASRDPFKADTMWWVRQAPRKRLEWVSVIGAHTTNSAYADSVKGRFTISRDNSKNTLYLQMNSLRAEDTAVYYCAREWMDRSRPYYYYGMDVWGQGTLVTVSS VL: SYELTQPPSVSVSPGQTVSITCSGRNLEDKFASWYQQKPGQSPVLVIYRDDKRPSGVPERFSASNSGHTATLTISGTQATDEADYYCSSQDTVTRVFGGGTKLTVL	0.729 nM	0.000103 s⁻¹	141000 M⁻¹ s⁻¹	0.55 nM	–
Abet0344 scFv (scFv, V domains shown, not shown: small tags and cut ends, Purified scFv expressed in E. coli) VH: EVQLLESGGGLVQPGGSLSLSCAASGFTFSVYTMWWVRQAPGKGLEWVSVIGGNETRKAYADSVKGRFTISRDNSKNRLYLQMNSLRAEDTAVYYCAREWMDHSRPYYYYGMDVWGQGTLVTVSS VL: QSVLTQPPSVSVSPGQTASITCSGHNLEDKFASWYQQKSGQSPVLVIYRDDKRPSGIPERFSASNSGHTATLTISGTQATDEADYYCATQDNFTRVFGGGTKLTVL	0.739 nM	5.73e-05 s⁻¹	77500 M⁻¹ s⁻¹	0.77 nM	–
Abet0383 scFv (scFv, V domains shown, not shown: small tags and cut ends, Purified scFv expressed in E. coli) VH: EVQLLESGGGLVQPGGSLKLSCAASGFTFDWYPMWWVRQAPGKRLEWISVIGADNAKIAYADSVKGRFTISRDNSKNTLYLQMNSLRAEDTAVYYCAREWMGHSRPYYYYGMDVWGQGTPVTVSS VL: SYELTQPPSVSVSPGQTASITCSGHNLGDKFASWYQQKPGQSPVLVIYRDDKRPSGIPERFSASNSGHTATLTISGTQATDEADYYCSSQDTVTRVFGGGTKLTVL	0.217 nM	3.94e-05 s⁻¹	181000 M⁻¹ s⁻¹	0.75 nM	–
Abet0329 scFv (scFv, V domains shown, not shown: small tags and cut ends, Purified scFv expressed in E. coli) VH: EVQLLESGGGLVQPGGSLRLSCAASTFNLKRETMWWVRQAPGKGLEWVSVIGSHQERTSYADSVKGRFTISRDNSKNTLYLQMNSLRAEDTAVYYCAREWMDHSRPYYYYGMDVWGQGTLVTVSS VL: SYELTQPPSVSVSPGQTASITCSGHNVSDKWMTWYQQKPGQSPVLVIYRDDKRPSGIPERFSASNSGHTATLTISGTQATDEADYYCSSQDTVTRVFGGGTKLTVL	0.701 nM	0.000138 s⁻¹	197000 M⁻¹ s⁻¹	0.63 nM	–
Abet0378 scFv (scFv, V domains shown, not shown: small tags and cut ends) VH: EVQLLESGGGLVQPGGSLRLSCAASGFPFETDIMWWVRQAPGKGLEWVSVIGTNTDNVAYADSVKGRFTISRDNSKNTLYLQMNSLRAEDTAVYYCAREWMDHSRPYYYYGMDVWGQGTLVTVSS VL: SYELTQPPSVSVSPGQTASITCSGHNLEDKFASWYQQKPGQSPVLVIYRDDKRPSGIPERFSASNSGHTATLTISGTQATDEADYYCSSQDTVTRVFGGGTKLTVL	0.472 nM	6.41e-05 s⁻¹	136000 M⁻¹ s⁻¹	0.97 nM	–
Abet0342 scFv (scFv, V domains shown, not shown: small tags and cut ends, Purified scFv expressed in E. coli) VH: EVQLLESGGGLVQPGGSLRLSCAASGFDFRRSVMWWVRQAPGKGLEWVSVIGAQTQNKAYADSVKGRFTISRDNSKNTLYLQMNSLRAEDTAVYYCAREWMDHSRPYYYYGMDVWGQGTLVTVSS VL: SYELTQPPSVSVSPGQTASITCSGHNLEDKFASWYQQKPGQSPVLVIYRDDKRPSGIPERFSASNSGDTATLTISGTQAMDEADYYCQAQDSTTRVFGGGTKLTVL	0.421 nM	5.73e-05 s⁻¹	136000 M⁻¹ s⁻¹	0.59 nM	–
Abet0379 scFv (scFv, V domains shown, not shown: small tags and cut ends, Purified scFv expressed in E. coli) VH: EVQLLESGGGLVQPGGSLRLSCAASGFDFAETPLWWVRQAPGERLEWVSVIGSNQNKTAYADSVKGRFTISRDNSKDTLYLQMNSLRAEDTAVYYCAREWMDHSRPYYYYGMDVWGQGTLVTVSS VL: QSVLTQPPSVSVSPGQTASITCSGHNLEDKFASWYQQKSGQSPVLVIYRDDKRPSGIPERFSASNSGHTATLTISGTQATDGADYYCATQDNFTRVFGGGTKLTVL	0.327 nM	4.39e-05 s⁻¹	134000 M⁻¹ s⁻¹	0.69 nM	–
Abet0371 scFv (scFv, V domains shown, not shown: small tags and cut ends, Purified scFv expressed in E. coli) VH: EVQLSESGGGLVQPGGSLRLSCAASHDAFPFDTMWWVRQAPGKGLEWVSVIGSSGGTTVYADSVKGRFTVSRDNSKNTLYLQMNSLRAEDTAVYYCAREWMDHSRPYYYYGMDVWGQGTLVTVSS VL: SYELTQPPSVSVSPGQTASITCSGHNISSSWVSWYQQKPGQSPVLVIYRDDKRPSGIPERFSASNSGHTATLTISGTQATDEADYYCSSQDTVTRVFGGGTKLTVL	0.762 nM	0.000272 s⁻¹	357000 M⁻¹ s⁻¹	0.5 nM	0.46 to 0.53 nM
Abet0373 scFv (scFv, V domains shown, not shown: small tags and cut ends, Purified scFv expressed in E. coli) VH: EVQLLESGGGLVQPGGSLRLSCVASGFDFERSVMWWVRQAPGKRLEWVSVIGSGKTNITYADSVKGRFTISRDNSKNTLYLQMNSLRAEDTAVYYCAREWMDHSRPYYYYGMDVWGQGTLVTVSS VL: SYELTQPPSVSVSPGQTASITCSGHNLEDKFASWYQQKPGQSPVLVIYRDDKRPSEIPERFSASNSGHTATLTISGTQATDEADYYCSSQDTVTRVFGGGTKLTVL	0.483 nM	8.92e-05 s⁻¹	185000 M⁻¹ s⁻¹	0.84 nM	–
Abet0319 scFv (scFv, V domains shown, not shown: small tags and cut ends, Purified scFv expressed in E. coli) VH: EVQLLESGGGLVQPGGSLRLSCAASVSVYNKDTMWWVRQAPGKGLEWVSVIGSSGGTTVYADSVKGRFTISRDNSKNTLYLQMNSLRAEDTAVYYCAREWMDHSRPYYYYGMDVWGQGTLVTVSS VL: SYELTQPPSVSVSPGQTASITCSGHNIMDKWVSWYQQKPGRSPALVIYRDDKRPSGIPERFSASNSGHTATLTISGTQATDEADYYCSSQDTVTRVFGGGTKLTVL	0.391 nM	0.000129 s⁻¹	329000 M⁻¹ s⁻¹	0.68 nM	0.52 to 0.76 nM
Abet0370 scFv (scFv, V domains shown, not shown: small tags and cut ends, Purified scFv expressed in E. coli) VH: EVQLLESGGGLVQPGGSLRLSCAASGFHFPMSAMWWVRQAPGKGLEWVSVIGETPERQAYADSVKGRFTISRDNSKSTLYLQMNSLRAEDTAVYYCAREWMDHSRPYYYYGMDVWGQGTLVTVSS VL: SYELTQPPSVSVSPGQTASITCTTPHFNSKFASWYQQKPGQSPVLVIYRDDKRPSGIPERFSASNSGHTATLTISGTQAMDEADYYCQAQDSTTRVFGGGTRLTVL	0.651 nM	7.76e-05 s⁻¹	119000 M⁻¹ s⁻¹	0.76 nM	–
Abet0381 scFv (scFv, V domains shown, not shown: small tags and cut ends, Purified scFv expressed in E. coli) VH: EVQLLESGGGLVQPGGSLRLSCAASSPSFPRETMWWVRQAPGKGLEWVSVIGTQPNRLTYADSVKGRFTISRDNSKNTLYLQMNSLRAEDTAVYYCAREWMDHSRPYYYYGIDVWGQGTLVTVSP VL: SYELTQPPSVSASPGQTASITCSGHNLEDKFVSWYQQKPGQSPVLVIYRDDKRPSGIPERFSASNSGHTATLTISGTQATDEANYYCSSQDTVTRAFGGGTKLTVL	0.241 nM	5.14e-05 s⁻¹	213000 M⁻¹ s⁻¹	0.47 nM	–
Abet0368 scFv (scFv, V domains shown, not shown: small tags and cut ends, Purified scFv expressed in E. coli) VH: EVQLLESGGGLVQPGGSLRLSCAASGFDFGPSPMWWVRQAPGKGLEWVSVIGKDTQNSTYADSVKGRFTISRDNSKDTLYLQMNSLKAEDTAVYYCAREWMDHSRPYYYYGMDVWGQGTLVTVSS VL: SYELTQPPSVSVSPGQTASITCSGHNLEDKFTSWYQQKSGQSPVLVIYRDDKRPSGIPERFSASNSGHTATLTISGAQATDEADYYCSSQDTVTRVFGGGTKLTVL	0.482 nM	9e-05 s⁻¹	187000 M⁻¹ s⁻¹	0.55 nM	–
Abet0372 scFv (scFv, V domains shown, not shown: small tags and cut ends, Purified scFv expressed in E. coli) VH: EVQLLESGGGLVQPGGSLRLSCAASSDMFNIETMWWVRQAPGKGLEWVSVIGKGMNNVSYADSVKGRFTISRDNSKNTLYLQMNSLRAEDTAVYYCAREWMDHSRPYYYYGMDVWGQGTLVTVSS VL: SYELTQPPSVSVSPGQTASITCSGHNLEDKFASWYQQKPGQSPVLVIYRDDKRPSGIPERFSASNSGHTATLTISGTQATDEADYYCSSQDTVTRVFGGGTKLTVL	0.724 nM	0.000176 s⁻¹	243000 M⁻¹ s⁻¹	0.38 nM	0.26 to 0.49 nM
